This is an account of results in US20150005237A1 (UNIVERSIT T INNSBRUCK, published 2015).

For assay [1], the target named is T1, PKA catalytic subunit (mouse, type α, PKAc) fused to Venus YFP PCA fragment F[2] (mouse, UniProt P05132 1-351). The assay is described as follows: Venus YFP protein-fragment complementation assay in cells.
Assay [2] concerns the target T2, PKA regulatory subunit RIIβ (rat, type IIβ) fused to Venus YFP PCA fragment F[2] (rat, UniProt P12369 1-416).
T2 construct: Expressed in COS7 or HEK293 cells from pcDNA3.1; also called RIIβ-F[2]; RegIIβ; not shown: Venus variant of yellow fluorescent protein (YFP), C-terminal fragment F[2], amino acids 159-239
The assay is described as follows: Venus YFP protein-fragment complementation assay in COS7 cells.

The target in assay [3] is T1, PKA catalytic subunit (mouse, type α, …). Described as above.

T2 sequence (P12369 other isoform, or with tags, fused parts or gaps): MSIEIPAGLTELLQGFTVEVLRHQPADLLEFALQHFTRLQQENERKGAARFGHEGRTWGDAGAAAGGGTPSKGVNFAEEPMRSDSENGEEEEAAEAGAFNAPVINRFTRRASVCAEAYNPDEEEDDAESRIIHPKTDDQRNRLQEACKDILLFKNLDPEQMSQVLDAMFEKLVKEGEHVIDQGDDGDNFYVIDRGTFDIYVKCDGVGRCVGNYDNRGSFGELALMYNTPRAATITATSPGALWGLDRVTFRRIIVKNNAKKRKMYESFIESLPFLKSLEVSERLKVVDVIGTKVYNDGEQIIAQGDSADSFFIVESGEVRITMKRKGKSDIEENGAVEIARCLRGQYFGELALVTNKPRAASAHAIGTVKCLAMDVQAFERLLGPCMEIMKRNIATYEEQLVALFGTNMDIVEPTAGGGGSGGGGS

B1: Phosphoinositide-dependent kinase 1 (PDK1) fused to Venus YFP PCA fragment F[1] (enzyme, UniProt Q9Z2A0 1-559, looked up)
chain: MARTTSQLYDAVPIQSSVVLCSCPSPSMVRSQTEPGSSPGIPSGVSRQGSTMDGTTAEARPSTNPLQQHPAQLPPQPRKKRPEDFKFGKILGEGSFSTVVLARELATSREYAIKILEKRHIIKENKVPYVTRERDVMSRLDHPFFVKLYFTFQDDEKLYFGLSYAKNGELLKYIRKIGSFDETCTRFYTAEIVSALEYLHGKGIIHRDLKPENILLNEDMHIQITDFGTAKVLSPESKQARANSFVGTAQYVSPELLTEKSACKSSDLWALGCIIYQLVAGLPPFRAGNEYLIFQKIIKLEYHFPEKFFPKARDLVEKLLVLDATKRLGCEEMEGYGPLKAHPFFETITWENLHQQTPPKLTAYLPAMSEDDEDCYGNYDNLLSQFGFMQVSSSSSSHSLSTVETSLPQRSGSNIEQYIHDLDTNSFELDLQFSEDEKRLLLEKQAGGNPWHQFVENNLILKMGPVDKRKGLFARRRQLLLTEGPHLYYVDPVNKVLKGEIPWSQELRPEAKNFKTFFVHTPNRTYYLMDPSGNAHKWCRKIQEVWRQQYQSNPDAAVQ
notes: Prey fused to F[1]; not shown: Venus variant of yellow fluorescent protein (YFP), N-terminal fragment F[1], amino acids 1-158
With B1, the binding result in assay [1] is “binds”.

B2: Gαi3 fused to Venus YFP PCA fragment F[1] (other, UniProt Q9DC51 1-354, looked up)
chain: MGCTLSAEDKAAVERSKMIDRNLREDGEKAAKEVKLLLLGAGESGKSTIVKQMKIIHEDGYSEDECKQYKVVVYSNTIQSIIAIIRAMGRLKIDFGESARADDARQLFVLAGSAEEGVMTSELAGVIKRLWRDGGVQACFSRSREYQLNDSASYYLNDLDRISQTNYIPTQQDVLRTRVKTTGIVETHFTFKELYFKMFDVGGQRSERKKWIHCFEGVTAIIFCVALSDYDLVLAEDEEMNRMHESMKLFDSICNNKWFTDTSIILFLNKKDLFEEKIKRSPLTICYPEYTGSNTYEEAAAYIQCQFEDLNRRKDTKEVYTHFTCATDTKNVQFVFDAVTDVIIKNNLKECGLY
notes: Prey fused to F[1]; also called Gαi isoform 3 prey; not shown: Venus variant of yellow fluorescent protein (YFP), N-terminal fragment F[1], amino acids 1-158
B2: the binding result is reported as “binds” in assay [2] and “no binding” in assay [3].

B3: Gαi2 fused to Venus YFP PCA fragment F[1] (other, UniProt P08752 1-355, looked up)
chain: MGCTVSAEDKAAAERSKMIDKNLREDGEKAAREVKLLLLGAGESGKSTIVKQMKIIHEDGYSEEECRQYRAVVYSNTIQSIMAIVKAMGNLQIDFADPQRADDARQLFALSCAAEEQGMLPEDLSGVIRRLWADHGVQACFGRSREYQLNDSAAYYLNDLERIAQSDYIPTQQDVLRTRVKTTGIVETHFTFKDLHFKMFDVGGQRSERKKWIHCFEGVTAIIFCVALSAYDLVLAEDEEMNRMHESMKLFDSICNNKWFTDTSIILFLNKKDLFEEKITQSSLTICFPEYTGANKYDEAASYIQSKFEDLNKRKDTKEIYTHFTCATDTKNVQFVFDAVTDVIIKNNLKDCGLF
notes: Prey fused to F[1]; also called Gαi isoform 2 prey; not shown: Venus variant of yellow fluorescent protein (YFP), N-terminal fragment F[1], amino acids 1-158
Take B3: the results for the binding result in assay [2] and in assay [3] were “binds” and “no binding”, respectively.
